What was measured:
[1] = molecular target: T1, empty GST proteins (UniProt P08515 1-218 = GST); experiment: GST pull-down with purified proteins
T1 construct: Negative control of the pull-down

[2] = molecular target: T2, p53Ψ (Homo sapiens (Human), UniProt P04637 1-225); experiment: co-immunoprecipitation from submitochondrial fractions, immunoblot
T2 construct: Whole p53Ψ isoform expressed ectopically in A549 cells; It was tested in submitochondrial fractions by co-immunoprecipitation; also called p53-psi; p53Ψ isoform

[3] = molecular target: T2, p53Ψ; experiment: co-immunoprecipitation from submitochondrial fractions with an anti-p53 N-terminal antibody, immunoblot

T1 sequence (P08515 whole entry): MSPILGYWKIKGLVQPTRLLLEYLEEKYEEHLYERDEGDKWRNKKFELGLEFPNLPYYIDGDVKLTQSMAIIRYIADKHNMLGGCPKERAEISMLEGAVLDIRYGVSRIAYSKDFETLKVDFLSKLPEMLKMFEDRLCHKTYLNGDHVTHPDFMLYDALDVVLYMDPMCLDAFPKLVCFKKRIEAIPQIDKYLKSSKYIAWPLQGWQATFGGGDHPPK

B1: purified p53Ψ (aa 102-243) (other)
chain: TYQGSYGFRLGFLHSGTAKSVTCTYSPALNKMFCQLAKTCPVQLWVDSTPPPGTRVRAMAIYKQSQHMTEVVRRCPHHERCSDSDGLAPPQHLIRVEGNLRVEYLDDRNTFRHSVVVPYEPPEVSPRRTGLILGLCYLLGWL
notes: Purified recombinant fragment used in the GST pull-down; also called recombinant p53Ψ
B1: no binding [1].

B2: BAK (other, UniProt Q16611 2-211, looked up)
chain: ASGQGPGPPRQECGEPALPSASEEQVAQDTEEVFRSYVFYRHQQEQEAEGVAAPADPEMVTLPLQPSSTMGQVGRQLAIIGDDINRRYDSEFQTMLQHLQPTAENAYEYFTKIATSLFESGINWGRVVALLGFGYRLALHVYQHGLTGFLGQVTRFVVDFMLHHCIARWIAQRGGWVAALNLGNGPILNVLVVLGVVLLGQFVVRRFFKS
B2: no binding [2].

B3: MnSOD (enzyme, UniProt P04179 25-222, looked up)
chain: KHSLPDLPYDYGALEPHINAQIMQLHHSKHHAAYVNNLNVTEEKYQEALAKGDVTAQIALQPALKFNGGGHINHSIFWTNLSPNGGGEPKGELLEAIKRDFGSFDKFKEKLTAASVGVQGSGWGWLGFNKERGHLQIAACPNQDPLQGTTGLIPLLGIDVWEHAYYLQYKNVRPDYLKAIWNVINWENVTERYMACKK
notes: Endogenous protein of A549 cells, a human cell line; also called SOD2
B3: no binding [3].

Source: US20170211072A1 (COLD SPRING HARBOR LABORATORY, published 2017)
